Experimental data taken from patent US20110159013A1.

Target: ADDL fibril preparation (Aβ1-42 fibrils made in 10 mM hydrochloric acid)
Experiment: solution equilibrium titration; free IgG by ELISA; GraFit

Kd: 1.15 nM
Substance: monoclonal antibody WO-2
